In paper PMC6532428 (Circulation, 2019):

Target: His-p65 fusion protein (UniProt Q04206 1-551)
Test: pull-down

His-p65 fusion protein, sequence (Q04206 whole entry, the tested form may be a part): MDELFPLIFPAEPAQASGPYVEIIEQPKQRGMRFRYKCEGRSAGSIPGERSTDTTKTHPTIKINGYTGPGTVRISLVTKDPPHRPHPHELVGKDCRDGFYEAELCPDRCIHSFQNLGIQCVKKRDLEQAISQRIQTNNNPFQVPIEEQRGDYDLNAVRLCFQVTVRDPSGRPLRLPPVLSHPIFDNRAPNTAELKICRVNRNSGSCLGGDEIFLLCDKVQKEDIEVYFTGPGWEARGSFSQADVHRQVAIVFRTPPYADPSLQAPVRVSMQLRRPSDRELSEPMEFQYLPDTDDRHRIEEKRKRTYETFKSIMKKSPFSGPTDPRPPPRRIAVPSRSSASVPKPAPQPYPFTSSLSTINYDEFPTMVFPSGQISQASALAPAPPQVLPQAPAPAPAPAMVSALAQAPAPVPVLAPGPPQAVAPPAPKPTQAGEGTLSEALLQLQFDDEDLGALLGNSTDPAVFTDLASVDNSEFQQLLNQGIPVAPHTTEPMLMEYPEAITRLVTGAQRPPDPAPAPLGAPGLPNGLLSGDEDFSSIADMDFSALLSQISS

B1: GST-RhoE recombinant protein (natural protein, UniProt P61587 1-244, looked up)
chain: MKERRASQKLSSKSIMDPNQNVKCKIVVVGDSQCGKTALLHVFAKDCFPENYVPTVFENYTASFEIDTQRIELSLWDTSGSPYYDNVRPLSYPDSDAVLICFDISRPETLDSVLKKWKGEIQEFCPNTKMLLVGCKSDLRTDVSTLVELSNHRQTPVSYDQGANMAKQIGAATYIECSALQSENSVRDIFHVATLACVNKTNKNVKRNKSQRATKRISHMPSRPELSAVATDLRKDKAKSCTVM
B1: binds.
